According to patent US20190085095A1 (SHIRE HUMAN GENETIC THERAPIES, published 2019):
Where a chain is given by its changes, count along the chain named. Numbers in names are those of the source. Where “and” joins values, the source holds several entries; their conditions need not be identical. Identical values can stand only once. Values belong to the binder of their own block, whether it stands above or below them.

How the values were obtained:
[1] = target: T1, human complement component 5 (C5) (human, UniProt P01031 19-1676); assay: cell-based or functional assay
cynomolgus monkey C5 [2] = target: T2, cynomolgus monkey C5 (cynomolgus monkey, UniProt A0A2K5U1T1 19-1676); assay: mean affinity for cC5, Biacore
T2 construct: also called cC5; cynomolgus C5

[3] = target: T1, human complement component 5 (C5); assay: Biacore, pH 7.4, against Control 1
Procedure: (§1) The kinetics of binding of purified human C5 (hC5) or hC5 in human serum to immobilized mAbs (via capture with anti-Fc antibodies) were measured by Biacore® assays over a pH range from 7.4 to 5.5. Binding was tested at pH 7.4, 7.0, 6.5, 6.0, and 5.5.

[4] = target: T1, human complement component 5 (C5); assay: Biacore; KD at pH 5.5 against KD at pH 7.4
Procedure: as §1

[5] = target: T1, human complement component 5 (C5); assay: Biacore, mAb captured via anti-Fc, hC5, pH 5.5
Procedure: as §1

[6] = target: T1, human complement component 5 (C5); assay: Biacore, mAb captured via anti-Fc, hC5, pH 7.4
Procedure: as §1

[7] = target: T3, human neonatal Fc receptor (FcRn) (human, UniProt P55899 24-297; P61769 21-119); assay: Biacore, immobilized recombinant hFcRn, pH 5.5; pH 5.5
T3 construct: also called hFcRn; recombinant FcRn
Procedure: (§2) Kinetics of binding to immobilized recombinant FcRn was determined for mAbs at pH 7.4 and pH 5.5 in Biacore® assays.

[8] = target: T3, human neonatal Fc receptor (FcRn); assay: Biacore, immobilized recombinant hFcRn, pH 6.0; pH 6.0
Procedure: as §2

FcγRIIIA = FcγRIIIA (UniProt P08637 17-208, limits assumed); assay: binding affinity to Fcγ receptor, method not stated; range 1000-31.25 nM
[9] = target: T1, human complement component 5 (C5); assay: Kd at pH 5.5 against Kd at pH 7.4
[10] = target: T1, human complement component 5 (C5); assay: C5 binding affinity at pH 5.5; method not named in Example 2
[11] = target: T1, human complement component 5 (C5); assay: C5 binding affinity at pH 7.4; method not named in Example 2; pH 7.4; IgG2 Fc
baboon C5 = target: T4, baboon C5 (baboon); assay: Biacore, antibody captured, baboon serum as analyte, pH 7.4; estimated, C5 titer assumed
T4 construct: also called C5 in baboon serum
Procedure: (§3) Biacore® binding assays were performed with antibody captured on the chip and sera from 16 different mammalian species as the analyte that is flowed over the chip.

African Green monkey C5 = target: T5, African Green monkey C5 (African Green monkey); assay: Biacore, antibody captured, African Green monkey serum as analyte, pH 7.4; estimated, C5 titer assumed
T5 construct: also called C5 in African Green monkey serum
Procedure: as §3

cynomolgus monkey C5 [12] = target: T2, cynomolgus monkey C5; assay: KD for cC5 of Antibody B against that of Control 1
[13] = target: T3, human neonatal Fc receptor (FcRn); assay: Biacore, immobilized recombinant hFcRn, pH 5.5
Procedure: as §2

[14] = target: T3, human neonatal Fc receptor (FcRn); assay: Biacore, immobilized recombinant hFcRn, pH 6.0
Procedure: as §2

cynomolgus monkey C5 [15] = target: T2, cynomolgus monkey C5; assay: Biacore, pH 7.4, cynomolgus against human (FIG. 8G)
Procedure: as §3
To validate the binding as specific to C5, pull-down experiments were performed on sera from cynomolgus monkeys. Size exclusion chromatography was used to purify the resulting cynomolgus C5, which was also used to reconfirm binding on biacore.

[16] = target: T1, human complement component 5 (C5); assay: Biacore, antibody captured, purified C5, pH 7.4
[17] = target: T1, human complement component 5 (C5); assay: Biacore, mAb captured via anti-Fc, purified hC5, pH 5.5
Procedure: (§4) Binding of hC5 to immobilized mAbs (via capture with anti-Fc antibodies) were measured by Biacore® assays at 7.4 and pH 5.5.

[18] = target: T1, human complement component 5 (C5); assay: Biacore, mAb captured via anti-Fc, purified hC5, pH 7.4
Procedure: as §4

[19] = target: T1, human complement component 5 (C5); assay: Biacore, antibody captured, human serum as analyte, pH 7.4
Procedure: as §3

cynomolgus monkey C5 [20] = target: T2, cynomolgus monkey C5; assay: Biacore, antibody captured, cynomolgus serum as analyte, pH 7.4
Procedure: as §3

[21] = target: T3, human neonatal Fc receptor (FcRn); assay: Biacore, immobilized recombinant hFcRn, pH 7.4; range 2000-15.6 nM
Procedure: as §2

FcγRI = FcγRI (UniProt P12314 16-288, limits assumed); assay: binding affinity to Fcγ receptor, method not stated; range 62.5-0.48 nM
rhesus monkey C5 = target: T6, rhesus monkey C5 (rhesus monkey, UniProt F7GHV1 19-1676); assay: Biacore, antibody captured, rhesus serum as analyte, pH 7.4; estimated, C5 titer assumed
T6 construct: also called C5 in rhesus serum
Procedure: as §3

CD-1 mouse C5 = target: T7, CD-1 mouse C5 (CD-1 mouse, UniProt P06684 19-1680); assay: Biacore, antibody captured, CD-1 mouse serum as analyte, pH 7.4; estimated, C5 titer assumed
T7 construct: also called C5 in CD-1 mouse serum; CD1 mice
Procedure: as §3

[22] = target: T3, human neonatal Fc receptor (FcRn); assay: Biacore, immobilized recombinant hFcRn, pH 7.4; range 50-0.39 nM; pH 7.4; concentration range 50-0.39 nM
Procedure: as §2

[23] = target: T1, human complement component 5 (C5); assay: C5 binding affinity at pH 7.4; method not named in Example 2

Sequence of FcγRI (P12314 16-288 limits assumed): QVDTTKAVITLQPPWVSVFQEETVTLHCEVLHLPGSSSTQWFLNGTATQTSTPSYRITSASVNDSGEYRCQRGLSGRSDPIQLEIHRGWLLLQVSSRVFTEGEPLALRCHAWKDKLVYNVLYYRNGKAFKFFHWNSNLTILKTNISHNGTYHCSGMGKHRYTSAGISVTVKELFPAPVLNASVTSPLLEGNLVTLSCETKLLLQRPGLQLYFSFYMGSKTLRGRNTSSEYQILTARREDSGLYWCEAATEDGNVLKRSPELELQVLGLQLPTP
Sequence of FcγRIIIA (P08637 17-208 limits assumed): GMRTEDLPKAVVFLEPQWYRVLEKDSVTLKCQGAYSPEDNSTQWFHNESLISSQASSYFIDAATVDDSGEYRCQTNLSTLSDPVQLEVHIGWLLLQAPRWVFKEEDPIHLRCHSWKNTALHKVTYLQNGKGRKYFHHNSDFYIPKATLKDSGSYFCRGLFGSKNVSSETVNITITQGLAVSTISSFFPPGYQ
T7 sequence (P06684 19-1680 limits assumed): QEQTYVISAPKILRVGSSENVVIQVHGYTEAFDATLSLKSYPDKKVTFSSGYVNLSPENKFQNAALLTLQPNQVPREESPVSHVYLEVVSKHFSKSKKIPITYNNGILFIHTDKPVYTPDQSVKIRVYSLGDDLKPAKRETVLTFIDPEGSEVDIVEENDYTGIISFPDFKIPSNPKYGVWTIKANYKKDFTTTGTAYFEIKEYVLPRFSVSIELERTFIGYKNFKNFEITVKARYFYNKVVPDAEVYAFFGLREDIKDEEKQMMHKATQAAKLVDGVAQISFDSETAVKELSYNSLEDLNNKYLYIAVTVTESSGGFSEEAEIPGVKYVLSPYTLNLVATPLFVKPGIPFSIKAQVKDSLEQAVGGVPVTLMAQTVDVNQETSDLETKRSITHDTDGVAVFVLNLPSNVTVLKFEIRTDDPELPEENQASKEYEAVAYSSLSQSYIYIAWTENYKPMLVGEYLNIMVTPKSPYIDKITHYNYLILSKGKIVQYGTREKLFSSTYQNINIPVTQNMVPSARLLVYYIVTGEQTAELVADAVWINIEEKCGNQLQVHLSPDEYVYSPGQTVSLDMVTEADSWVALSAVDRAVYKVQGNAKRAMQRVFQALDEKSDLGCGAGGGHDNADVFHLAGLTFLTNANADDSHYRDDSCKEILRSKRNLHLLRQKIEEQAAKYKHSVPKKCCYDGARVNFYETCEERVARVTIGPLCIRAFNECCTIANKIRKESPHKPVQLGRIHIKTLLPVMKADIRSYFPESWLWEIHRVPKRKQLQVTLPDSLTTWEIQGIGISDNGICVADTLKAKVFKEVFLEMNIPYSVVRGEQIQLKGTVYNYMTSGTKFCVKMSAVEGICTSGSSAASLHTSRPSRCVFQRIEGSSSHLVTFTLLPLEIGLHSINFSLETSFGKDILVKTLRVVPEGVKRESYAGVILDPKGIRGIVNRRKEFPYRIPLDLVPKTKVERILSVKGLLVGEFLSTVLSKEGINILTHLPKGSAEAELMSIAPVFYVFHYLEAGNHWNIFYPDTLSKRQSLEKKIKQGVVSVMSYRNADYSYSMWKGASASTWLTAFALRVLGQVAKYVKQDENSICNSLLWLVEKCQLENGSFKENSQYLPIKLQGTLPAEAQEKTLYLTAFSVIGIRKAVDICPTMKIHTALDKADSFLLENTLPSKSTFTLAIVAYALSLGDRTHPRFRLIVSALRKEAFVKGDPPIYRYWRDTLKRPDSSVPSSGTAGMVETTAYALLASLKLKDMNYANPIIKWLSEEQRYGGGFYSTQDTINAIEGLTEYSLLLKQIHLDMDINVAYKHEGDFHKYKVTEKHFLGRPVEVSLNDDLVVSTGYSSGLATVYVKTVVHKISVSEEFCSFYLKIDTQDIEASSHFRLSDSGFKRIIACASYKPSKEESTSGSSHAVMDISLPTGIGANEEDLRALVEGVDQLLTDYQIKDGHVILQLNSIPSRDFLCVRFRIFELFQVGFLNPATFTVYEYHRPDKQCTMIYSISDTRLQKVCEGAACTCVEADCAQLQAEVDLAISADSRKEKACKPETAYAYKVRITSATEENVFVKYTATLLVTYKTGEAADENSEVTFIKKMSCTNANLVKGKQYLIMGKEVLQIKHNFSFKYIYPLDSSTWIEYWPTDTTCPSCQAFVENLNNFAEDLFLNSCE
T6 sequence (F7GHV1 entry or part of it): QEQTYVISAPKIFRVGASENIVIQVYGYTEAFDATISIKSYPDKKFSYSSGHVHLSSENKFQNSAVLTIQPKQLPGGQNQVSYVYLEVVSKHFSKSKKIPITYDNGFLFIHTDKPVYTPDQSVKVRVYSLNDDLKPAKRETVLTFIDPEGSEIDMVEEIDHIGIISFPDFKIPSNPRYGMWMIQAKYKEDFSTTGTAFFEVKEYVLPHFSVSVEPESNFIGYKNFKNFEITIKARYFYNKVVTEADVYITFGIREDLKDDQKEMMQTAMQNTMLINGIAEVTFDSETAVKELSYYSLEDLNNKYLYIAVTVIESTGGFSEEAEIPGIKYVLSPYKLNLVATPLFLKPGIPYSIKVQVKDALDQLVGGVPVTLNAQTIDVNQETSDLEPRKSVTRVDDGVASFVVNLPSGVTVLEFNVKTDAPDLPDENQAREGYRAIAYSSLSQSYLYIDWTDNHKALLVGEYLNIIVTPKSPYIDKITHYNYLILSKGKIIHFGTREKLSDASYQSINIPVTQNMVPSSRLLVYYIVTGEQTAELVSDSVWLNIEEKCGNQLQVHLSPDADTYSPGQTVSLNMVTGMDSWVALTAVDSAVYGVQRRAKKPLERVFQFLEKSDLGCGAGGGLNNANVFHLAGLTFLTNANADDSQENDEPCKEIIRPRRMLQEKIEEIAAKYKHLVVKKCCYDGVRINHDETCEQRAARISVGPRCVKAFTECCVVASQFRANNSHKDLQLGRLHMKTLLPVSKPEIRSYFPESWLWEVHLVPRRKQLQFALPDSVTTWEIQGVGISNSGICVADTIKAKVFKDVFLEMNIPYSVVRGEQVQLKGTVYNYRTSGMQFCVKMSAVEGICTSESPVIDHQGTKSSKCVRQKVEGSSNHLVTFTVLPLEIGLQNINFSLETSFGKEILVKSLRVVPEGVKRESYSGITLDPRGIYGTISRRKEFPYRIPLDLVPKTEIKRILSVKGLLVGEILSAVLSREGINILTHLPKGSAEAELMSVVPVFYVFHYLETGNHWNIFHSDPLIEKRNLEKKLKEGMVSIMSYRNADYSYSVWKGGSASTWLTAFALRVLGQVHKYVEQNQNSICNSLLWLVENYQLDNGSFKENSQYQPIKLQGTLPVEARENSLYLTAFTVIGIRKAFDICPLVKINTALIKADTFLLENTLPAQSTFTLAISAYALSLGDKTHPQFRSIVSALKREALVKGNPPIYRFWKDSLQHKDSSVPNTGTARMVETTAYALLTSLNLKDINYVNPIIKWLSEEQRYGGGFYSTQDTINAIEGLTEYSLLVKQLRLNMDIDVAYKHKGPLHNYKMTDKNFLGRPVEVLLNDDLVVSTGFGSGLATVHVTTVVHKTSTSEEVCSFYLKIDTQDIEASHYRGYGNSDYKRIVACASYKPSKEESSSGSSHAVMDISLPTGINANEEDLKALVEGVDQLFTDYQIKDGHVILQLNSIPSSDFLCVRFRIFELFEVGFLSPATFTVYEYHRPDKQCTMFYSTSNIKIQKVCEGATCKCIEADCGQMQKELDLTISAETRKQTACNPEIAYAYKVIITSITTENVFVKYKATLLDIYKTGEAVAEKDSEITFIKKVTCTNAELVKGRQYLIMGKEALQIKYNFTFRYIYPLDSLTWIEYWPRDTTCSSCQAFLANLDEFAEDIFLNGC

B1: Antibody A (antibody, human IgG1, kappa, L234A L235A)
heavy: not shown
light: DIQMTQSPSSLSASVGDRVTITCGAHENIYHALNWYQQKPGKAPKLLIYGATNLAHGVPSRFSGSGSGTDFTLTISSLQPEDFATYYCQNVLNTPLTFGQGTKVEIKRTVAAPSVFIFPPSDEQLKSGTASVVCLLNNFYPREAKVQWKVDNALQSGNSQESVTEQDSKDSTYSLSSTLTLSKADYEKHKVYACEVTHQGLSSPVTKSFNRGEC
notes: IgG1 with L234A, L235A
IC50 for inhibition of antibody-sensitized lysis of chicken RBC by human serum [1]: 3 µg/mL
Kd (cynomolgus monkey C5 [2]): 1.65 nM
fold reduction of the C5 binding affinity at pH 7.4 as compared to Control 1 [3]: < 3 fold
KD fold-change [4]: 332 fold
Kd [5]: 113 nM
Kd [6]: 0.34 nM
Kd [7]: 5.9 nM
Kd [8]: 11.3 nM
Kd (FcγRIIIA): 7420 nM

B2: Antibody D (antibody, human IgG2, kappa)
heavy: QVQLVQSGAEVKKPGASVKVSCKASGYIFSNYWIQWVRQAPGQGLEWMGEILPGSGSTEYTENFKDRVTMTRDTSTSTVYMELSSLRSEDTAVYYCARYHFGSSPNWYFDVWGQGTLVTVSSASTKGPSVFPLAPCSRSTSESTAALGCLVKDYFPEPVTVSWNSGALTSGVHTFPAVLQSSGLYSLSSVVTVPSSNFGTQTYTCNVDHKPSNTKVDKTVERKCCVECPPCPAPPVAGPSVFLFPPKPKDTLMISRTPEVTCVVVDVSHEDPEVQFNWYVDGVEVHNAKTKPREEQFNSTFRVVSVLTVVHQDWLNGKEYKCKVSNKGLPAPIEKTISKTKGQPREPQVYTLPPSREEMTKNQVSLTCLVKGFYPSDIAVEWESNGQPENNYKTTPPMLDSDGSFFLYSKLTVDKSRWQQGNVFSCSVMHEALHNHYTQKSLSLSPGK
light: B1 light with H26S, H31G, H56D, N93H
notes: IgG2 Fc constant region; also called F100H heavy / N93H light on IgG2 backbone
Fold change in Kd (pH 5.5 vs. pH 7.4) [9]: 13.4 fold
Kd [10]: 13.9 nM
Kd [11]: 1.04 nM

B3: Control 1 (antibody, human IgG2, kappa)
heavy: QVQLVQSGAEVKKPGASVKVSCKASGYIFSNYWIQWVRQAPGQGLEWMGEILPGSGSTEYTENFKDRVTMTRDTSTSTVYMELSSLRSEDTAVYYCARYFFGSSPNWYFDVWGQGTLVTVSSASTKGPSVFPLAPCSRSTSESTAALGCLVKDYFPEPVTVSWNSGALTSGVHTFPAVLQSSGLYSLSSVVTVPSSNFGTQTYTCNVDHKPSNTKVDKTVERKCCVECPPCPAPPVAGPSVFLFPPKPKDTLMISRTPEVTCVVVDVSQEDPEVQFNWYVDGVEVHNAKTKPREEQFNSTYRVVSVLTVLHQDWLNGKEYKCKVSNKGLPSSIEKTISKAKGQPREPQVYTLPPSQEEMTKNQVSLTCLVKGFYPSDIAVEWESNGQPENNYKTTPPVLDSDGSFFLYSRLTVDKSRWQEGNVFSCSVMHEALHNHYTQKSLSLSLGK
light: B1 light with H26S, H31G, H56D
notes: IgG2 and IgG4 (IgG 2-4); produced in CHO cells; also called control antibody
Kd [7]: 125 nM
Kd [8]: 125 nM
Kd (baboon C5): 16.2 nM
Kd (African Green monkey C5): 27.5 nM

B4: Antibody B (antibody, human IgG1, kappa, L234A L235A)
heavy: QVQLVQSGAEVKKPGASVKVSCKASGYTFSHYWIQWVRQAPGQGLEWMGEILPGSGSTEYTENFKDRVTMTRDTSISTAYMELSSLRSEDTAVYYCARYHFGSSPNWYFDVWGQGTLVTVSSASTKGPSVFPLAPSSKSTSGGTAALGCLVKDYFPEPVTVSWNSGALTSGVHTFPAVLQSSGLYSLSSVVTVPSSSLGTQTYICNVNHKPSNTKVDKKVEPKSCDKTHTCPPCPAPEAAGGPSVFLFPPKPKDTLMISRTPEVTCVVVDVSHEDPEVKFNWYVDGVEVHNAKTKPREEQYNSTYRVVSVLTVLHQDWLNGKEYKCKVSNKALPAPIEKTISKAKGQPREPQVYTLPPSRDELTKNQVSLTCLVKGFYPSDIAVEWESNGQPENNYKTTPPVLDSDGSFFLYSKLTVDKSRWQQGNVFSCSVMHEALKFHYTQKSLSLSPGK
light: B1 light
notes: IgG1 with L234A, L235A, H433K, N434F
IC50 for inhibition of antibody-sensitized lysis of chicken RBC by human serum [1]: 3 µg/mL
fold reduction of the C5 binding affinity at pH 7.4 as compared to Control 1 [3]: < 3 fold
KD fold-change [4]: 414 fold
fold improvement in affinity against Control 1 (cynomolgus monkey C5 [12]): 8 fold
Kd [5]: 145 nM
Kd [6]: 0.35 nM
Kd [13]: 0.13 nM
Kd [14]: 0.24 nM
fold lower affinity than for human C5 (cynomolgus monkey C5 [15]): 5.7 fold
Kd [16]: 0.34 nM
fold lower affinity than BNJ441 at pH 5.5 [17]: 10 fold
fold greater affinity than BNJ441 at pH 7.4 [18]: 3 fold
Kd [19]: 0.33 nM
Kd (cynomolgus monkey C5 [20]): 1.9 nM
Kd [21]: 191 nM
Kd (FcγRI): 94 nM and 75 nM and 62 nM
Kd (FcγRIIIA): 9620 nM
Kd (baboon C5): 2.6 nM
Kd (rhesus monkey C5): 3.19 nM
Kd (CD-1 mouse C5): 5.3 nM
Kd (African Green monkey C5): 3.2 nM
Kd [22]: 108 nM

Continued, values first:

fold reduction of the C5 binding affinity at pH 7.4 as compared to Control 1 [3]: < 3 fold
KD fold-change [4]: 142 fold
Kd [5]: 37 nM
Kd [6]: 0.26 nM
B5: Antibody C (antibody, human IgG1, kappa, L234A L235A, V domains shown)
VH: QVQLVQSGAEVKKPGASVKVSCKASGYTFSHYWIQWVRQAPGQGLEWMGEILPGSGSTEYTENFKDRVTMTRDTSISTAYMELSSLRSEDTAVYYCARYHFGSSPNWYFDVWGQGTLVTVSS
VL: DIQMTQSPSSLSASVGDRVTITCGAHENIYGALNWYQQKPGKAPKLLIYGATNLAHGVPSRFSGSGSGTDFTLTISSLQPEDFATYYCQNVLNTPLTFGQGTKVEIKR
notes: as for B4

Fold change in Kd (pH 5.5 vs. pH 7.4) [9]: 48.5 fold
Kd [10]: 34.9 nM
Kd [23]: 0.72 nM
B6: Antibody E (antibody, human IgG1, kappa, L234A L235A)
heavy: not shown
light: B1 light with H26S, H31G, H56D, N93H
notes: IgG1 Fc constant region; also called F100H heavy / N93H light on IgG1 backbone
